Measured values from patent US20130224224A1 (Boehringer Ingelheim, published 2013).
Read-outs that look alike come from different tables or passages of the source.

B1: CX3CR1BIIPMP18E6 (VHH)
VHH: KVQLVESGGGLVQPGGSLRLSCATSGTIFSNNAMGWYRQAPGKKRDLVASISSSGSTNYADSVKGRFTVSRDNDKNTGYLQMNSLKPEDTGVYYCTLDARRGWNTAYWGQGAQVTVSS
notes: family 13; also called 18E06; CX3CR1BII18E06; not shown: C-terminal c-myc and His6 tags
B2: CX3CR1BII007 (VHH)
chain: EVQLVESGGGLVQAGGSLRLSCVASGRTFSSYAMGWFRQAPGKERAFVAGISGSASRKYYADSVKGRFTVSRDNARNTVYLQMNSLKPEDTAVYYCAASNSYPKVQFDYYGQGTQVTVSSGGGGSGGGGSGGGGSGGGGSGGGGSGGGGSGGGGSKVQLVESGGGLVQPGGSLRLSCATSGTIFSNNAMGWYRQAPGKKRDLVASISSSGSTNYADSVKGRFTVSRDNDKNTGYLQMNSLKPEDTGVYYCTLDARRGWNTAYWGQGAQVTVSS
notes: expressed in E. coli as described for the monovalent VHHs (c-myc, His6 tags there)
B3: CX3CR1BII012 (VHH)
chain: EVQLVESGGGSVQAGGSLRLSCAASGSIFSSNAMAWYRQAPGKQRDLVAGINSVGITKYADSVKGRFTISRDNAKNTVYLQMNSLKPEDTAVYYCTSDPRRGWDTRYWGQGTLVTVSSGGGGSGGGGSGGGGSGGGGSGGGGSGGGGSGGGGSKVQLVESGGGLVQPGGSLRLSCATSGTIFSNNAMGWYRQAPGKKRDLVASISSSGSTNYADSVKGRFTVSRDNDKNTGYLQMNSLKPEDTGVYYCTLDARRGWNTAYWGQGAQVTVSS
notes: expressed in E. coli as described for the monovalent VHHs
B4: CX3CR1BIIPMP54A7 (VHH)
VHH: EVQLVESGGGSVQAGESLRLSCAASGTIFSSNAMAWYRQAPGKQRDLVAGINSVDITKYADSVKGRFTISRDNAKNTVYLQMNSLKPEDTAVYYCTSDPRRGWNTRYWGQGTQVTVSS
notes: also called 54A07; not shown: C-terminal c-myc and His6 tags
B5: CX3CR1BIIPMP54A12 (VHH)
VHH: EVQLVESGGGSVQAGESLRLSCAASGSIFSSNAMAWYRQAPGKQRDLVAVINSVGITKYADSVKGRFTISGDNAKNTVYLQMNSLKPEDTAVYYCTSDARRGWDTRYWGQGTQVTVSS
notes: also called CX3CR1BII54A12; not shown: C-terminal c-myc and His6 tags
B6: CX3CR1BII009 (VHH)
chain: KVQLVESGGGLVQPGGSLRLSCATSGTIFSNNAMGWYRQAPGKKRDLVASISSSGSTNYADSVKGRFTVSRDNDKNTGYLQMNSLKPEDTGVYYCTLDARRGWNTAYWGQGAQVTVSSGGGGSGGGGSGGGGSGGGGSGGGGSGGGGSGGGGSEVQLVESGGGLVQAGGSLRLSCVASGRTFSSYAMGWFRQAPGKERAFVAGISGSASRKYYADSVKGRFTVSRDNARNTVYLQMNSLKPEDTAVYYCAASNSYPKVQFDYYGQGTQVTVSS
notes: as for B3

Assays:
human CX3CR1 [1] = target: T1, human CX3CR1 (human, UniProt P49238 1-355); assay: cell-based or functional assay
T1 sequence: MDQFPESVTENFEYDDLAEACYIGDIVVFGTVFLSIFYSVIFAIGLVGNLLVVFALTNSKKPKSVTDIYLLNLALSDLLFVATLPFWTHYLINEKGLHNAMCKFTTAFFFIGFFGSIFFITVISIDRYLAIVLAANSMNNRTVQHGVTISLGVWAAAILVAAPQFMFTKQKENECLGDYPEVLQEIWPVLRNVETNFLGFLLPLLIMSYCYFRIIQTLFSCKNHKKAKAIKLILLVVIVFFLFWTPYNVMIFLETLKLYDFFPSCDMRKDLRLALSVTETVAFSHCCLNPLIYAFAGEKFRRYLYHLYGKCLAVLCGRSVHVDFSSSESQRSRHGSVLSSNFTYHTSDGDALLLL

cynomolgus CX3CR1 [2] = target: T2, cynomolgus CX3CR1 (cynomolgus, UniProt P49238 1-355 (human entry)); assay: FACS binding, cynomolgus against human CX3CR1
T2 construct: transiently expressed on HEK293T cells; also called cyCX3CR1; cyno CX3CR1
T2 chain: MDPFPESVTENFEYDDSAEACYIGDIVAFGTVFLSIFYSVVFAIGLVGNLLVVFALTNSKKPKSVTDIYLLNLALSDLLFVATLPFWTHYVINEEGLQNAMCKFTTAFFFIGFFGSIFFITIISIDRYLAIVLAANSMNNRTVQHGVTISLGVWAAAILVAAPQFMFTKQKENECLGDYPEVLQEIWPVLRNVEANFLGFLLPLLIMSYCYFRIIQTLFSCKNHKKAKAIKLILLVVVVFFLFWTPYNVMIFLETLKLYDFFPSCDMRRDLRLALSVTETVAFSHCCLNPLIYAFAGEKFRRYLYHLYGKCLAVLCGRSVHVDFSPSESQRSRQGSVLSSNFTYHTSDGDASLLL
Procedure: (§1) Initially, a FACS based binding setup was used to evaluate the cynomolgus cross reactivity. For this, the VHHs were incubated with the respective cells for 30 minutes at 4° C. followed by three wash steps and subsequently incubated with the detection reagents. As detection, a mouse anti-cmyc antibody (Serotec, MCA2200) followed by a goat anti-mouse antibody coupled to PE (Jackson 115-116-071) was used, each incubation for 30 minutes at 4° C., followed by three wash steps.

human CX3CR1 [3] = target: T1, human CX3CR1; assay: A647-fractalkine competition FACS, CHO-huCX3CR1
Excerpt: (§2) Periplasmic extracts were screened in a human CX3CR1/human Fractalkine FACS competition assay to assess the blocking capacity of the expressed VHHs. Human CX3CR1 was presented on CHO cells overexpressing CX3CR1. Both a setup using cells harvested from an actively growing culture and a setup using frozen cells was used. As a detection reagent labeled fractalkine was used (R&D Systems, Minneapolis, Minn., USA) labeled with alexa647 (A647-Fractalkine) at a degree of labeling of 1. To setup the assay, first a titration series of the labeled fractalkine was performed on the CHO-huCX3CR1 cells in order to determine the EC50 value for binding. Initially screening was performed at a higher concentration of fractalkine (3 nM) to increase the assay robustness. To increase the sensitivity of the screening to a maximum, the EC30 concentration (1 nM) was chosen for subsequent screening. In brief 50 μl of periplasmic extract was added to 6 nM labeled fractalkine (50 μ;) and 200 000 CHO-huCX3CR1 cells. After one hour incubation at 4 C, cells were washed three times before read out was performed on a FACS Array (Becton Dickinson). First a gate was set on the intact cells as determined from the scatter profile. Next, dead cells were gated out by their fluorescence profile from the PI stain (Sigma, St Louis, US). The fluorescence profile from the alexa647 label was determined for each sample and used for calculation of blocking capacity. As controls, conditions were taken along where there was no VHH present in the peri extract or a known irrelevant VHH and samples were included where excess cold fractalkine was included. For each sample the percentage block was determined using the control samples to determine the assay window.
(§3) The blocking capacity towards the ligand fractalkine of the VHHs was evaluated in a human CX3CR1 competition FACS as outlined in Example 4. Either CHO-huCX3CR1 cells, BA/F3-huCX3CR1 cells or transiently transfected HEK293T cells were used. The amount of labeled ligand used in the different competition setups was also varied. The IC₅₀ values for VHHs blocking the interaction of human fractalkine to human CX3CR1 are depicted in Table 19.

human CX3CR1 [4] = target: T1, human CX3CR1; assay: A647-fractalkine competition FACS, BA/F3-huCX3CR1
Excerpt: as §2, §3

human CX3CR1 [5] = target: T1, human CX3CR1; assay: FACS binding on human CX3CR1 cells, anti-c-myc detection
Procedure: as §1

cynomolgus CX3CR1 [6] = target: T2, cynomolgus CX3CR1; assay: FACS binding on cynomolgus CX3CR1 cells, anti-c-myc detection
Procedure: as §1

human CX3CR1 [7] = target: T1, human CX3CR1; assay: competition FACS, BA/F3-huCX3CR1; competitor alexa647-labeled 66B02
Excerpt: A competitive binding experiment was setup in order to determine whether the VHHs bind overlapping epitopes on CX3CR1. For this, the VHH 66B02 labeled with alexa647 was used in a competition FACS on the BA/F3 cells expressing huCX3CR1. Representative VHHs from the three functional families were used as competitors for the binding of the labeled 66B02.

human CX3CR1 [8] = target: T1, human CX3CR1; assay: periplasmic extract, A647-fractalkine competition FACS, CHO-huCX3CR1
In short: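 Periplasmic VHH extracts competed with Alexa647-fractalkine (EC30, 1 nM; 3 nM initially) for binding to live or frozen CHO cells overexpressing human CX3CR1, 1 h at 4 C. FACS read on intact, PI-negative cells; percent block derived using no-VHH, irrelevant-VHH and excess cold fractalkine controls.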

human CX3CR1 [9] = target: T1, human CX3CR1; assay: cell-based or functional assay; remark: listed apart in the source
human CX3CR1 [10] = target: T1, human CX3CR1; assay: FACS binding, HEK293T human CX3CR1
cynomolgus CX3CR1 [11] = target: T2, cynomolgus CX3CR1; assay: FACS binding, HEK293T cynomolgus CX3CR1
cynomolgus CX3CR1 [12] = target: T2, cynomolgus CX3CR1; assay: FACS binding, cynomolgus against human CX3CR1
human CX3CR1 [13] = target: T1, human CX3CR1; assay: A647-fractalkine competition FACS, CHO-huCX3CR1; remark: listed apart in the source
Excerpt: as §2
The inhibition of ligand binding to human CX3CR1 was investigated for the different formats as described in Example 4. For this characterization the BA/F3-huCX3CR1 cell line was used showing stable expression of the human CX3CR1 receptor. The alexa647 labeled ligand fractalkine was used at its EC30 concentration and thereby obtained IC50 values are reflective of the Ki values.

human CX3CR1 [14] = target: T1, human CX3CR1; assay: A647-fractalkine competition FACS, HEK293-huCX3CR1
In short: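 VHHs compete with Alexa647-fractalkine for CX3CR1 on CHO, BA/F3 or transiently transfected HEK293T cells, with the labeled-ligand amount varying between setups. After 1 h at 4 °C and washing, PI-negative intact cells were gated by flow cytometry. IC50 follows from percentage block, with the window set by no/irrelevant-VHH and excess cold fractalkine controls.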

human CX3CR1 [15] = target: T1, human CX3CR1; assay: A647-fractalkine competition FACS, HEK293T human CX3CR1
In short: (§4)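 VHHs competed with Alexa647-labelled human fractalkine (degree of labelling 1, at its EC30 concentration) for human or cynomolgus CX3CR1 transiently expressed in HEK293T cells, with transfections matched by ligand binding. A647 fluorescence of intact, PI-negative cells was read by flow cytometry. % block was taken against no-VHH and excess cold fractalkine controls, giving IC50 values.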

cynomolgus CX3CR1 [16] = target: T2, cynomolgus CX3CR1; assay: A647-fractalkine competition FACS, HEK293T cynomolgus CX3CR1
In short: as §4

cynomolgus CX3CR1 [17] = target: T2, cynomolgus CX3CR1; assay: A647-fractalkine competition FACS, cynomolgus against human CX3CR1
In short: as §4

Binder	% block, fractalkine induced chemotaxis (human CX3CR1 [1])	ratio (cynomolgus/human EC50) (cynomolgus CX3CR1 [2])	% block (human CX3CR1 [3])	IC50 (human CX3CR1 [3])	% block (human CX3CR1 [4])	IC50 (human CX3CR1 [4])	EC50 (human CX3CR1 [5])	EC50 (cynomolgus CX3CR1 [6])	% block (human CX3CR1 [8])	% block, fractalkine induced chemotaxis (human CX3CR1 [9])	IC50, fractalkine induced chemotaxis (human CX3CR1 [9])	EC50 (human CX3CR1 [10])	EC50 (cynomolgus CX3CR1 [11])	ratio (cynomolgus/human EC50) (cynomolgus CX3CR1 [12])	% block (human CX3CR1 [13])	IC50 (human CX3CR1 [13])	IC50, fractalkine induced chemotaxis (human CX3CR1 [1])	% block (human CX3CR1 [14])	IC50 (human CX3CR1 [14])	% block (human CX3CR1 [15])	further results
B1	17%	9	33%	1.8 nM	71%	2.8 nM	1.5 nM	14 nM	53.1%	–	–	–	–	–	–	–	–	–	–	–	% block (human CX3CR1 [7]): 100%; IC50 (human CX3CR1 [7]): 2.3 nM
B2	–	–	–	–	–	–	–	–	–	101%	4 nM	0.31 nM	48 nM	154	100%	0.38 nM	–	–	–	–	–
B3	–	–	–	–	–	–	–	–	–	78%	4 nM	0.056 nM	0.063 nM	1.1	93%	0.8 nM	–	–	–	–	–
B4	45%	0.1	78%	11 nM	81%	15 nM	540 nM	30 nM	68.9%	–	–	–	–	–	–	–	50 nM	52%	23 nM	52%	IC50 (human CX3CR1 [15]): 23 nM; % block (cynomolgus CX3CR1 [16]): 69%; IC50 (cynomolgus CX3CR1 [16]): 280 nM; ratio (cynomolgus/human IC50) (cynomolgus CX3CR1 [17]): 12.3
B5	84%	3.3	104%	2.1 nM	100%	4 nM	35 nM	110 nM	93.8%	–	–	–	–	–	–	–	80 nM	96%	6.8 nM	96%	IC50 (human CX3CR1 [15]): 6.8 nM; % block (cynomolgus CX3CR1 [16]): 94%; IC50 (cynomolgus CX3CR1 [16]): 67 nM; ratio (cynomolgus/human IC50) (cynomolgus CX3CR1 [17]): 9.85
B6	–	–	–	–	–	–	–	–	–	79%	20 nM	2 nM	6.8 nM	3.3	91%	0.7 nM	–	–	–	–	–
